Measured values as given in PMC3355305, “Localized Dimerization and Nucleoid Binding Drive Gradient Formation by the Bacterial Cell Division Inhibitor MipZ” (Molecular Cell, 2012).

Tested on: C. crescentus cells
Test: FRAP analysis of MipZ-YFP mobility
Format: cell-based, Caulobacter crescentus
Text: Due to their association with chromosomal DNA, MipZ dimers should display slower diffusion rates than monomers. To test this hypothesis, we monitored the mobility of wild-type and mutant MipZ-YFP fusions using fluorescence recovery after photobleaching (FRAP) analysis. […] Concurrent with the reappearance of fluorescence at the bleached pole, the intensity of the unbleached focus decreased, while the total integrated fluorescence remained constant within the cell.
Figure 5 FRAP Analysis of MipZ Diffusion (A and C) FRAP experiments on cells producing a wild-type MipZ-YFP fusion (A) or a MipZ-D42A fusion (C). Cells of strain MT177 (WT) or MT197 (D42A) were shifted from M2GN to M2G medium containing 0.3% xylose and cultivated for another 4 hr to deplete wild-type MipZ and synthesize the indicated fusion protein instead. Single polar MipZ-YFP foci were photo-bleached (white circles), and recovery was followed by fluorescence microscopy (scale bars represent 2 μm). (B, D, and E) Quantification of the recovery rate in cells producing YFP fusions to wild-type MipZ (MT177) (B), MipZ-D42A (MT197) (D), and MipZ-G14V (MT178) (E). FRAP experiments were performed as described in (A). The graphs show the average relative integrated intensities of the bleached region, an unbleached region of equal size at the opposite pole, and the remaining area of the cell plotted as a function of time. The recovery half-times (t1/2), as determined by fitting of the data to single-exponential functions (red lines), are given on top of the graphs. […] (F) Quantification of the recovery rate of MipZ-YFP in cells depleted of ParB. Strain MT148 was grown in M2G medium for 15 hr and analyzed as described in (B), (D), and (E). […] The recovery half-time measured before depletion of ParB was 11.8 s (±1.2 s; n = 34) (data not shown). See also Figure S6. […] It is uncertain whether they count as substance results. / All panels: the lowered sign after t is very small and is read as ½.
Figure S6. Fluorescence-recovery-after-photobleaching analysis of MipZ mobility, Related to Figure 5.
(A) Representative images of FRAP experiments on cells producing mutant MipZ-YFP fusions. Cells of strains DK2 (K13A), MT178 (G14V) and MT179 (K18Q), which express wild-type mipZ under the control of the ammonium-repressible PnrtX promoter and the indicated mipZ-eyfp allele under the control of the xylose-inducible Pxyl promoter, were shifted from M2GN to M2G medium containing 0.3% xylose and cultivated for another 4 h to deplete wild-type MipZ and synthesize the fusion protein instead. Single polar regions were photo-bleached, and recovery was followed by fluorescence microscopy (bars: 2 µm). The bleached regions are highlighted by circles.
(B) Cells of strain MT177 (ΔmipZ PnrtX::mipZ Pxyl::mipZ-eyfp) were grown as described in (A). Chloramphenicol (20 µg/ml) was added to the growing culture 25 min prior to harvest as well as to the agarose pads used for the FRAP experiments. Fitting of the data to a single exponential equation yielded a recovery half-time of 12.4 s (± 0.5 s).
(C) Cells of strain MT97 (mipZ-eyfp) were grown in M2G medium and subjected to FRAP analysis. The fitted curve corresponds to a recovery half-time of 12.0 s (± 1.2 s).
(D and E) Cells of strains (D) DK2 (ΔmipZ PnrtX::mipZ Pxyl::mipZK13A-eyfp) and (E) MT179 (ΔmipZ PnrtX::mipZ Pxyl::mipZK18Q-eyfp) were grown as described in (A) and subjected to FRAP analysis. […]

B1: MipZ: P loop ATPase and cell division inhibitor of Caulobacter crescentus; hexahistidine-tagged in vitro, YFP fusion in FRAP (protein)
chain: MAETRVIVVGNEKGGAGKSTIAVHLVTALLYGGAKVAVIDLDLRQRTSARFFENRRAWLDNKKIELPEPLALNLSDNDVALAERPEEEQVAGFEAAFARAMAECDFILIDTPGGDSAITRMAHGRADLVVTPMNDSFVDFDMLGTVDPVTLELTKPSLYSLTVWEGRKQRALSGQRQAMDWVVLRNRLATTEARNRKRLEDRLNALAKRVGFRIGPGLRDRVIYRELFPFGLTIADLSPQVRPVPVSLQHLAARQELRALMHSLGLSAYSGETMLAAQ
modifications: left off: His6, end not stated, state not stated
notes: hexahistidine-tagged in vitro, YFP fusion in FRAP
For B1, the “recovery half-time (t1/2)” value (MipZ-YFP in cells depleted of ParB (strain MT148)) was 3.2 s, the “recovery half-time (t1/2)” value (YFP fusion, xylose-induced, cells depleted of wild-type MipZ, polar region bleached) was 10.7 s and the recovery half-time (strain MT97 (mipZ-eyfp), M2G medium, not inducible promoter) was 12.0 s. It also gave a recovery half-time (strain MT148 before depletion of ParB) of 11.8 s and a recovery half-time (strain MT177, chloramphenicol 20 µg/ml) of 12.4 s.
